Substrate: CCCCC/C=C\C/C=C\C/C=C\C/C=C\CCCC(=O)O
Assay: purified protein
Conditions: heme cyclooxygenase channel

B1: wild-type human COX-2 (huCOX-2) (Homo sapiens) (protein)
chain: ANPCCSHPCQNRGVCMSVGFDQYKCDCTRTGFYGENCSTPEFLTRIKLFLKPTPNTVHYILTHFKGFWNVVNNIPFLRNAIMSYVLTSRSHLIDSPPTYNADYGYKSWEAFSNLSYYTRALPPVPDDCPTPLGVKGKKQLPDSNEIVEKLLLRRKFIPDPQGSNMMFAFFAQHFTHQFFKTDHKRGPAFTNGLGHGVDLNHIYGETLARQRKLRLFKDGKMKYQIIDGEMYPPTVKDTQAEMIYPPQVPEHLRFAVGQEVFGLVPGLMMYATIWLREHNRVCDVLKQEHPEWGDEQLFQTSRLILIGETIKIVIEDYVQHLSGYHFKLKFDPELLFNKQFQYQNRIAAEFNTLYHWHPLLPDTFQIHDQKYNYQQFIYNNSILLEHGITQFVESFTRQIAGRVAGGRNVPPAVQKVSQASIDQSRQMKYQSFNEYRKRFMLKPYESFEELTGEKEMSAELEALYGDIDAVELYPALLVEKPRPDAIFGETMVEVGAPFSLKGLMGNVICSPAYWKPSTFGGEVGFQIINTASIQSLICNNVKGCPFTSFSVPDPELIKTVTINASSSRSGLDDINPTVLLKERSTEL
Km: 17.7 ± 1.9 µM
